According to US20240066131A1 (Protagonist Therapeutics, Inc., priority 2020, published 2024):
Starred links: 1 amine or outer side, 2 acyl side, 3 side chain; linkers in the order of their positions; H or OH if unused. Positions of bridges follow the written chain, without caps; N, C: chain ends. Non-standard residues stand in square brackets, D forms with d. Groups on a side chain read outwards from the residue. No end group written: not given here. *: point of attachment. Gal = N6-(4-(galactopyranosyloxy)butanoyl) on the lysine side chain; N_Butyl_Phe = CCCCN([C@@H](Cc1ccccc1)C(=O)[*:2])[*:1]; C18 diacid = O=C(O)CCCCCCCCCCCCCCCCC(=O)*; Dip = N[C@H](C(=O)O)C(c1ccccc1)c1ccccc1; γGlu = O=C(O)[C@H](CCC(=O)[*:2])N[*:1]; Palmitoyl = CCCCCCCCCCCCCCCC(=O)*; Myristoyl = CCCCCCCCCCCCCC(=O)*; β3hF = N[C@H](CC(=O)O)Cc1ccccc1; Isovaleryl = CC(C)CC(=O)*; Dap = NC[C@H](N)C(=O)O; AEEA = NCCOCCOCC(=O)O; Ahx = NCCCCCC(=O)O; NHPr = CCCN*

T1: human ferroportin (SLC40A1) fused in frame with GFP, stably expressed in HEK293 cells (human, UniProt Q9NP59 1-571)
T1 sequence (looked up): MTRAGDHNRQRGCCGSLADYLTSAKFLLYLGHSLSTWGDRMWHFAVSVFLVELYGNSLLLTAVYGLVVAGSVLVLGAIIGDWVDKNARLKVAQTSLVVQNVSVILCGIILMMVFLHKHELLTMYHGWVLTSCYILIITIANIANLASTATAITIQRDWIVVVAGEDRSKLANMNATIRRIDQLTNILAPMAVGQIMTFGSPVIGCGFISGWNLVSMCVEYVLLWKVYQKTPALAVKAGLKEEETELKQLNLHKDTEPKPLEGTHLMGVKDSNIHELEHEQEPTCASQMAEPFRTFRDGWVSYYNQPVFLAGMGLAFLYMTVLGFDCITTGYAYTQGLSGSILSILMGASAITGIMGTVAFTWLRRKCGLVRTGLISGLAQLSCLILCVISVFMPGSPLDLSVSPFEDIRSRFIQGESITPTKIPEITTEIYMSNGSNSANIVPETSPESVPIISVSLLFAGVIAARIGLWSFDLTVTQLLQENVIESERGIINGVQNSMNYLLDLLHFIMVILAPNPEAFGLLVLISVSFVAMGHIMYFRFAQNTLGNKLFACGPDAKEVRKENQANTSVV

B1: Ac-[Lys(1PEG2_1PEG2_IsoGlu_C18_Diacid)]-T-H-[Dpa]-P-A-I-[(D)Lys]-[bhPhe]-NH2 (peptide)
peptide: Ac-K([AEEA-AEEA-γGlu-C18 diacid])TH[Dip]PAI[dK][β3hF]-NH2
SMILES: CC[C@H](C)[C@H](NC(=O)[C@H](C)NC(=O)[C@@H]1CCCN1C(=O)[C@@H](NC(=O)[C@H](Cc1c[nH]cn1)NC(=O)[C@@H](NC(=O)[C@H](CCCCNC(=O)COCCOCCNC(=O)COCCOCCNC(=O)CC[C@H](NC(=O)CCCCCCCCCCCCCCCCC(=O)O)C(=O)O)NC(C)=O)[C@@H](C)O)C(c1ccccc1)c1ccccc1)C(=O)N[C@H](CCCCN)C(=O)N[C@H](CC(N)=O)Cc1ccccc1
B2: Isovaleric Acid-[Lys(1PEG2_1PEG2_IsoGlu_C18_Diacid)]-T-H-[Dpa]-P-A-I-[(D)Lys]-[bhPhe]-NH2 (peptide)
peptide: Isovaleryl-K([AEEA-AEEA-γGlu-C18 diacid])TH[Dip]PAI[dK][β3hF]-NH2
SMILES: CC[C@H](C)[C@H](NC(=O)[C@H](C)NC(=O)[C@@H]1CCCN1C(=O)[C@@H](NC(=O)[C@H](Cc1c[nH]cn1)NC(=O)[C@@H](NC(=O)[C@H](CCCCNC(=O)COCCOCCNC(=O)COCCOCCNC(=O)CC[C@H](NC(=O)CCCCCCCCCCCCCCCCC(=O)O)C(=O)O)NC(=O)CC(C)C)[C@@H](C)O)C(c1ccccc1)c1ccccc1)C(=O)N[C@H](CCCCN)C(=O)N[C@H](CC(N)=O)Cc1ccccc1
B3: Isovaleric Acid-E-T-H-[Dpa]-P-[Lys(1PEG2_1PEG2_IsoGlu_C18_Diacid)]-N_Ethyl_Phe (peptide)
peptide: XETHXPXX
modifications: N-term Isovaleric Acid; Dpa4; Lys(1PEG2_1PEG2_IsoGlu_C18_Diacid)6; C-term N_Ethyl_Phe
B4: Isovaleric Acid-E-T-H-F-P-Dap-I-[Lys(1PEG2_1PEG2_IsoGlu_C18_Diacid)]-F-E-P-R-S-K-G-E-K-NH2 (peptide)
peptide: Isovaleryl-ETHFP[Dap]IK([AEEA-AEEA-γGlu-C18 diacid])FEPRSKGEK-NH2
modifications: lactam 6-16
SMILES: CC[C@H](C)[C@@H]1NC(=O)[C@@H](NC(=O)[C@@H]2CCCN2C(=O)[C@H](Cc2ccccc2)NC(=O)[C@H](Cc2c[nH]cn2)NC(=O)[C@@H](NC(=O)[C@H](CCC(=O)O)NC(=O)CC(C)C)[C@@H](C)O)CNC(=O)CC[C@@H](C(=O)N[C@@H](CCCCN)C(N)=O)NC(=O)CNC(=O)[C@H](CCCCN)NC(=O)[C@H](CO)NC(=O)[C@H](CCCNC(=N)N)NC(=O)[C@@H]2CCCN2C(=O)[C@H](CCC(=O)O)NC(=O)[C@H](Cc2ccccc2)NC(=O)[C@H](CCCCNC(=O)COCCOCCNC(=O)COCCOCCNC(=O)CC[C@H](NC(=O)CCCCCCCCCCCCCCCCC(=O)O)C(=O)O)NC1=O
B5: Isovaleric Acid-E-T-H-F-P-D-I-[Lys(1PEG2_1PEG2_IsoGlu_C18_Diacid)]-F-E-P-R-S-K-G-Dap-K-NH2 (peptide)
peptide: Isovaleryl-ETHFPDIK([AEEA-AEEA-γGlu-C18 diacid])FEPRSKG[Dap]K-NH2
modifications: lactam 6-16
SMILES: CC[C@H](C)[C@@H]1NC(=O)[C@@H](NC(=O)[C@@H]2CCCN2C(=O)[C@H](Cc2ccccc2)NC(=O)[C@H](Cc2c[nH]cn2)NC(=O)[C@@H](NC(=O)[C@H](CCC(=O)O)NC(=O)CC(C)C)[C@@H](C)O)CC(=O)NC[C@@H](C(=O)N[C@@H](CCCCN)C(N)=O)NC(=O)CNC(=O)[C@H](CCCCN)NC(=O)[C@H](CO)NC(=O)[C@H](CCCNC(=N)N)NC(=O)[C@@H]2CCCN2C(=O)[C@H](CCC(=O)O)NC(=O)[C@H](Cc2ccccc2)NC(=O)[C@H](CCCCNC(=O)COCCOCCNC(=O)COCCOCCNC(=O)CC[C@H](NC(=O)CCCCCCCCCCCCCCCCC(=O)O)C(=O)O)NC1=O
B6: Isovaleric Acid-E-T-H-[Dpa]-P-[Lys(1PEG2_1PEG2_IsoGlu_C18_Diacid)]-N_Butyl_Phe (peptide)
peptide: XETHXPXX
modifications: N-term Isovaleric Acid; Dpa4; Lys(1PEG2_1PEG2_IsoGlu_C18_Diacid)6; C-term N_Butyl_Phe
B7: Isovaleric Acid-E-T-H-[Dpa]-P-[Lys(1PEG2_1PEG2_IsoGlu_C18_Diacid)]-Propyl_Amine (peptide)
peptide: XETHXPXX
modifications: N-term Isovaleric Acid; Dpa4; Lys(1PEG2_1PEG2_IsoGlu_C18_Diacid)6; C-term Propyl_Amine
B8: Isovaleric Acid-[Lys(1PEG2_1PEG2_Ahx_C18_Diacid)]-T-H-[Dpa]-P-A-I-[(D)Lys]-[bhPhe]-NH2 (peptide)
peptide: Isovaleryl-K([AEEA-AEEA-Ahx-C18 diacid])TH[Dip]PAI[dK][β3hF]-NH2
SMILES: CC[C@H](C)[C@H](NC(=O)[C@H](C)NC(=O)[C@@H]1CCCN1C(=O)[C@@H](NC(=O)[C@H](Cc1c[nH]cn1)NC(=O)[C@@H](NC(=O)[C@H](CCCCNC(=O)COCCOCCNC(=O)COCCOCCNC(=O)CCCCCNC(=O)CCCCCCCCCCCCCCCCC(=O)O)NC(=O)CC(C)C)[C@@H](C)O)C(c1ccccc1)c1ccccc1)C(=O)N[C@H](CCCCN)C(=O)N[C@H](CC(N)=O)Cc1ccccc1
B9: Ac-[Lys(1PEG2_1PEG2_Ahx_C18_Diacid)]-T-H-[Dpa]-P-A-I-[(D)Lys]-[bhPhe]-NH2 (peptide)
peptide: Ac-K([AEEA-AEEA-Ahx-C18 diacid])TH[Dip]PAI[dK][β3hF]-NH2
SMILES: CC[C@H](C)[C@H](NC(=O)[C@H](C)NC(=O)[C@@H]1CCCN1C(=O)[C@@H](NC(=O)[C@H](Cc1c[nH]cn1)NC(=O)[C@@H](NC(=O)[C@H](CCCCNC(=O)COCCOCCNC(=O)COCCOCCNC(=O)CCCCCNC(=O)CCCCCCCCCCCCCCCCC(=O)O)NC(C)=O)[C@@H](C)O)C(c1ccccc1)c1ccccc1)C(=O)N[C@H](CCCCN)C(=O)N[C@H](CC(N)=O)Cc1ccccc1
B10: Isovaleric Acid-E-T-H-F-P-E-I-[Lys(1PEG2_1PEG2_IsoGlu_C18_Diacid)]-F-E-P-R-S-K-G-Dap-K-NH2 (peptide)
peptide: Isovaleryl-ETHFPEIK([AEEA-AEEA-γGlu-C18 diacid])FEPRSKG[Dap]K-NH2
modifications: lactam 6-16
SMILES: CC[C@H](C)[C@@H]1NC(=O)[C@@H](NC(=O)[C@@H]2CCCN2C(=O)[C@H](Cc2ccccc2)NC(=O)[C@H](Cc2c[nH]cn2)NC(=O)[C@@H](NC(=O)[C@H](CCC(=O)O)NC(=O)CC(C)C)[C@@H](C)O)CCC(=O)NC[C@@H](C(=O)N[C@@H](CCCCN)C(N)=O)NC(=O)CNC(=O)[C@H](CCCCN)NC(=O)[C@H](CO)NC(=O)[C@H](CCCNC(=N)N)NC(=O)[C@@H]2CCCN2C(=O)[C@H](CCC(=O)O)NC(=O)[C@H](Cc2ccccc2)NC(=O)[C@H](CCCCNC(=O)COCCOCCNC(=O)COCCOCCNC(=O)CC[C@H](NC(=O)CCCCCCCCCCCCCCCCC(=O)O)C(=O)O)NC1=O
B11: Isovaleric Acid-L-T-H-[Dpa]-[Lys(1PEG2_1PEG2_IsoGlu_C18_Diacid)]-Propyl_Amine (peptide)
peptide: Isovaleryl-LTH[Dip]K([AEEA-AEEA-γGlu-C18 diacid])-NHPr
SMILES: CCCNC(=O)[C@H](CCCCNC(=O)COCCOCCNC(=O)COCCOCCNC(=O)CC[C@H](NC(=O)CCCCCCCCCCCCCCCCC(=O)O)C(=O)O)NC(=O)[C@@H](NC(=O)[C@H](Cc1c[nH]cn1)NC(=O)[C@@H](NC(=O)[C@H](CC(C)C)NC(=O)CC(C)C)[C@@H](C)O)C(c1ccccc1)c1ccccc1
B12: Isovaleric Acid-E-T-H-F-P-Dap-I-[Lys(1PEG2_1PEG2_IsoGlu_C18_Diacid)]-F-E-P-R-S-K-G-D-K-NH2 (peptide)
peptide: Isovaleryl-ETHFP[Dap]IK([AEEA-AEEA-γGlu-C18 diacid])FEPRSKGDK-NH2
modifications: lactam 6-16
SMILES: CC[C@H](C)[C@@H]1NC(=O)[C@@H](NC(=O)[C@@H]2CCCN2C(=O)[C@H](Cc2ccccc2)NC(=O)[C@H](Cc2c[nH]cn2)NC(=O)[C@@H](NC(=O)[C@H](CCC(=O)O)NC(=O)CC(C)C)[C@@H](C)O)CNC(=O)C[C@@H](C(=O)N[C@@H](CCCCN)C(N)=O)NC(=O)CNC(=O)[C@H](CCCCN)NC(=O)[C@H](CO)NC(=O)[C@H](CCCNC(=N)N)NC(=O)[C@@H]2CCCN2C(=O)[C@H](CCC(=O)O)NC(=O)[C@H](Cc2ccccc2)NC(=O)[C@H](CCCCNC(=O)COCCOCCNC(=O)COCCOCCNC(=O)CC[C@H](NC(=O)CCCCCCCCCCCCCCCCC(=O)O)C(=O)O)NC1=O

Target: T1, human ferroportin (SLC40A1) fused in …
Assay: cell-based or functional assay

| Binder | FPN IC50 |
| --- | --- |
| B1 | 3.37 µM |
| B2 | 2.16 µM |
| Isovaleryl-ETHFPAIK([Ahx-C12 acid])FEPRSKGAK-NH2 [Isovaleric Acid-E-T-H-F-P-A-I-[Lys(Ahx_C12_acid)]-F-E-P-R-S-K-G-A-K-NH2] | 1.07 µM |
| B3 | 0.408 µM |
| B4 | > 10 µM |
| B5 | > 10 µM |
| Isovaleryl-K(Gal)TH[Dip]PK([Ahx-Palmitoyl])[β3hF]-NH2 [Isovaleric Acid-[Lys(Gal-T-H-[Dpa]-P-[Lys(Ahx_Palm)]-[bhPhe]-NH2] | 0.758 µM |
| Isovaleryl-ETHFPAIK([Ahx-C10 acid])FEPRSKGAK-NH2 [Isovaleric Acid-E-T-H-F-P-A-I-[Lys(Ahx_C10_acid)]-F-E-P-R-S-K-G-A-K-NH2] | > 3 µM |
| B6 | 0.448 µM |
| Isovaleryl-LTH[Dip]K([AEEA-AEEA-γGlu-C18 diacid])[N_Butyl_Phe] [Isovaleric Acid-L-T-H-[Dpa]-[Lys(1PEG2_1PEG2_IsoGlu_C18_Diacid)]-N_Butyl Phe] | > 3 µM |
| Isovaleryl-K(GalNH)TH[Dip]PAIK([Ahx-Palmitoyl])[β3hF]-NH2 [Isovaleric Acid-[Lys(GalNH-T-H-[Dpa]-P-A-I-[Lys(Ahx_Palm)]-[bhPhe]-NH2] | 0.15 µM |
| B7 | 0.47 µM |
| Isovaleryl-LTH[Dip]PK([Ahx-Palmitoyl])[N_Ethyl_Phe] [Isovaleric Acid-L-T-H-[Dpa]-P-[Lys(Ahx_Palm)]-N_Ethyl_Phe] | 0.0183 µM |
| B8 | 1.28 µM |
| Isovaleryl-LTH[Dip]PK([Ahx-Palmitoyl])-NHPr [Isovaleric Acid-L-T-H-[Dpa]-P-[Lys(Ahx_Palm)]-Propyl_Amine] | 0.0873 µM |
| B9 | > 3 µM |
| Isovaleryl-LTH[Dip]PK([Ahx-Palmitoyl])[N_Butyl_Phe] [Isovaleric Acid-L-T-H-[Dpa]-P-[Lys(Ahx_Palm)]-N_Butyl_Phe] | 0.074 µM |
| B10 | > 10 µM |
| B11 | > 3 µM |
| Isovaleryl-ETHFPAIK([Ahx-Myristoyl])FEPRSKGAK-NH2 [Isovaleric Acid-E-T-H-F-P-A-I-[Lys(Ahx_C14_acid)]-F-E-P-R-S-K-G-A-K-NH2] | 0.689 µM |
| Isovaleryl-LTH[Dip]K([AEEA-AEEA-γGlu-C18 diacid])[N_Ethyl_Phe] [Isovaleric Acid-L-T-H-[Dpa]-[Lys(1PEG2_1PEG2 IsoGlu_C18_Diacid)]-N_Ethyl Phe] | > 3 µM |
| Isovaleryl-LTH[Dip]K([AEEA-AEEA-γGlu-C18 diacid])-Benzyl_Amine [Isovaleric Acid-L-T-H-[Dpa]-[Lys(1PEG2_1PEG2_IsoGlu_C18_Diacid)]-Benzyl_Amine] | > 3 µM |
| B12 | 6.11 µM |
